Tests used:
Assay in all cases: purified protein
purified protein [1] = substrate: Nc1ncnc2c1ncn2[C@@H]1O[C@H](COP(=O)(O)OP(=O)(O)OP(=O)(O)O)[C@@H](O)[C@H]1O; type: biochemical, Lactococcus cremoris; conditions: OAc to Ac-P, varying acetate, 4.2 mM MgCl2, 100 mM HEPES, 400 mM potassium glutamate, pH 7.5
purified protein [2] = substrate: Nc1ncnc2c1ncn2[C@@H]1O[C@H](COP(=O)(O)OP(=O)(O)O)[C@@H](O)[C@H]1O; type: biochemical, Lactococcus cremoris; conditions: Ac-P to OAc, varying Ac-P, 5 mM MgSO4, 100 mM HEPES, 400 mM potassium glutamate, pH 7.5
purified protein [3] = substrate: CC(=O)OP(=O)(O)O; type: biochemical, Lactococcus cremoris; conditions: Ac-P to OAc, varying ADP, 5 mM MgSO4, 100 mM HEPES, 400 mM potassium glutamate, pH 7.5
purified protein [4] = substrate: CC(=O)O; conditions: OAc to Ac-P, varying ATP, 4.2 mM MgCl2, 100 mM HEPES, 400 mM potassium glutamate, pH 7.5, apparent Km

B1: AckA2 (Lactococcus cremoris subsp. cremoris MG1363) (protein)
chain: MEKTLAVNAGSSSLKWQLYEMPEETVIAKGIFERIGLSGSISTTKFNNEEHVRKQEIVDHRQAVLLLMDELIHFQLIHEFREITGIGHRVVAGGEFFKDSTIITPEVLAEIKNLSTLAPLHNPANVLGIEAFQRLLPDALAVAVFDTAFHSTLPEKAYRYPIPTKYYEDYSIRKYGAHGTSHMYVAQEAAKVLGKPLEELKIITAHIGNGASITAIEGGKSVDTSMGFTPLAGVMMGTRAGEMDASVIPYMLESDPSLRNAQDVIDILNKESGVLGVSELSSDMRDLSEAVAKGNPKAILAYEMYVDRLKKFIAQYFGVLNGADALIFTAGVGENDTAVRTDVVNGLSWFGMEIDESKNVRGAFGIISKPESKVKVLVVPTNEELVIARDVEAAK
notes: His-tagged (vector pQE30, N-terminal tag kept), from E. coli M15 pREP4 groESL, Ni-NTA; 84 kDa by gel filtration, monomer 43 kDa, homodimer; residue I331 in ATP site
- Km (purified protein [1]): 0.21 (0.12) mM
- kcat (purified protein [1]): 394 s⁻¹
- Km (purified protein [2]): 1.15 (0.12) mM
- kcat (purified protein [2]): 282 s⁻¹
- Km (purified protein [3]): 0.086 (0.02) mM
- Km (purified protein [4]): 1.87 (0.29) mM
- kcat (purified protein [4]): 394 s⁻¹

B2: AckA1 (Lactococcus cremoris subsp. cremoris MG1363) (protein)
chain: MTKTLAVNAGSSSMKWQMYEMPEEKVLAKGLIERIGLKDSIVTVKFGEEKEERVFDIPNHTEAVEVLLEDLKRLKIVEEFTEITGVGHRVVAGGEIFQKSTVVTPEVLQQVKDLSALAPLHNPANAAGIEAFLNLLPDATSVVVFDTAFHTTMPEKAFRYPLPKKYYTDYAVRKYGAHGTSHMYVSQEAAKLLGKPIEETKIITAHIGNGASITAVKGGESVDTSMGFTPLAGVMMGTRTGEMDPSVFPYLIENDSELKDAQDVVDMMNKESGLYGVSGISSDMRDIIAAKDTDADAKLAFEMYVDRIQKFIGQYLAVLNGADALVFTAGIGENSVPVREAILSGLTWFGIEVDPEKNVFGVEGEISKPSSRLKVFVIPTDEELVIARDVEALKK
notes: His-tagged (vector pQE30, N-terminal tag kept), from E. coli M15 pREP4 groESL, Ni-NTA; 100 kDa by gel filtration, monomer 43 kDa, homodimer; residue V331 in ATP site
- Km (purified protein [1]): 0.086 (0.0078) mM
- kcat (purified protein [1]): 3234 s⁻¹
- Km (purified protein [2]): 0.94 (0.09) mM
- kcat (purified protein [2]): 1033 s⁻¹
- Km (purified protein [3]): 0.35 (0.02) mM
- Km (purified protein [4]): 22.07 (1.05) mM
- kcat (purified protein [4]): 3234 s⁻¹
